Measurements published in the Immune Epitope Database (IEDB).

target: HLA-A*02:01; assay: IEDB peptide-MHC binding, cellular MHC/competitive/fluorescence; ≥ and ≤ were set here for values at or beyond the usual limits of such assays; conditions: source organism: Human herpesvirus 5 strain AD169

Sequence	IC50 [µM]
SIYVYALPL	5
LLQTGIHVRV	5
VLCPKNMII	12
DIYRIFAEL	12
MLNIPSINV	2.5
NLLMNGQQI	5
RLLQTGIHV	2
ALFFFDIDL	2
ILARNLVPMV	1
GLSISGNLL	16
YLESFCEDV	16
